For ten substances, IC50 (µg/ml) in TZM-bl and ID50/IC50 in TZM-bl results are on record in US20230140293A1.

Bounds are passed on as bounds.

Holding throughout (experiment): cell-based or functional assay
Assay [1] addresses CH0505.w4.3 Env, Env-pseudotyped virus produced in 293T cells (HIV-1).
For assay [2], the target named is CH0505TF Env, Env-pseudotyped virus produced in 293S GnTI- cells (Man5-enriched) (HIV-1).
The target in assay [3] is CH0505TF Env, Env-pseudotyped virus produced in 293T cells (HIV-1).
Assay [4] concerns the target CH0505TF.G458Y Env, Env-pseudotyped virus produced in 293S GnTI- cells (Man5-enriched) (HIV-1).
For assay [5], the target named is CH0505TF.G458Y Env, Env-pseudotyped virus produced in 293T cells (HIV-1).
In assay [6] the target is CH0505TF.gly3.197 Env, Env-pseudotyped virus produced in 293S GnTI- cells (Man5-enriched) (HIV-1).
Assay [7] concerns the target CH0505TF.gly3.197 Env, Env-pseudotyped virus produced in 293T cells (HIV-1).
Assay [8] concerns the target CH0505TF.gly3.276 Env, Env-pseudotyped virus produced in 293S GnTI- cells (Man5-enriched) (HIV-1).
Assay [9] deals with CH0505TF.gly3.276 Env, Env-pseudotyped virus produced in 293T cells (HIV-1).
For assay [10], the target named is CH0505TF.gly3.461 Env, Env-pseudotyped virus produced in 293S GnTI- cells (Man5-enriched) (HIV-1).
In assay [11] the target is CH0505TF.gly3.461 Env, Env-pseudotyped virus produced in 293T cells (HIV-1).
Assay [12] concerns the target CH0505TF.gly4 Env, Env-pseudotyped virus produced in 293S GnTI- cells (Man5-enriched) (HIV-1).
Assay [13] addresses CH0505TF.gly4 Env, Env-pseudotyped virus produced in 293T cells (HIV-1).
Assay [14] concerns the target HIV-1 Env 426c, Env-pseudotyped virus produced in 293S GnTI- cells (Man5-enriched) (HIV-1 clade C strain 426c).
The target of assay [15] is HIV-1 Env 426c, Env-pseudotyped virus produced in 293T cells (HIV-1 clade C strain 426c).
The target of assay [16] is HIV-1 Env 426c.DM (N460D.N463D), Env-pseudotyped virus produced in 293S GnTI- cells (Man5-enriched) (HIV-1 clade C strain 426c).
Assay [17] deals with HIV-1 Env 426c.DM (N460D.N463D), Env-pseudotyped virus produced in 293T cells (HIV-1 clade C strain 426c).
For assay [18], the target named is HIV-1 Env 426c.SM (N276D), Env-pseudotyped virus produced in 293S GnTI- cells (Man5-enriched) (HIV-1 clade C strain 426c).
The target of assay [19] is HIV-1 Env 426c.SM (N276D), Env-pseudotyped virus produced in 293T cells (HIV-1 clade C strain 426c).
Assay [20] deals with HIV-1 Env 426c.TM (N276D.N460D.N463D), Env-pseudotyped virus produced in 293S GnTI- cells (Man5-enriched) (HIV-1 clade C strain 426c).
The target of assay [21] is HIV-1 Env 426c.TM (N276D.N460D.N463D), Env-pseudotyped virus produced in 293T cells (HIV-1 clade C strain 426c).
Assay [22] has as its target HIV-1 Env 426c.TM4 (S278R.G471S.N460D.N463D), Env-pseudotyped virus produced in 293S GnTI- cells (Man5-enriched) (HIV-1 clade C strain 426c).
In assay [23] the target is HIV-1 Env 426c.TM4 (S278R.G471S.N460D.N463D), Env-pseudotyped virus produced in 293T cells (HIV-1 clade C strain 426c).
Assay [24] addresses HIV-1 426c.DM (N460D/N463D) Env on Env-pseudotyped virus produced in 293T cells (HIV-1).
Assay [25] deals with HIV-1 426c.DM (N460D/N463D) Env on Env-pseudotyped virus produced in 293s/GnTI-/- cells (Man5-enrichment) (HIV-1).
Assay [26] has as its target HIV-1 426c.SM (N276D) Env on Env-pseudotyped virus produced in 293T cells (HIV-1).
Assay [27] addresses HIV-1 426c.SM (N276D) Env on Env-pseudotyped virus produced in 293s/GnTI-/- cells (Man5-enrichment) (HIV-1).
For assay [28], the target named is HIV-1 426c.TM (N276D/N460D/N463D) Env on Env-pseudotyped virus produced in 293T cells (HIV-1).
In assay [29] the target is HIV-1 426c.TM (N276D/N460D/N463D) Env on Env-pseudotyped virus produced in 293s/GnTI-/- cells (Man5-enrichment) (HIV-1).
Assay [30] deals with HIV-1 clade C strain 426c Env on Env-pseudotyped virus produced in 293T cells (HIV-1).
The target in assay [31] is HIV-1 clade C strain 426c Env on Env-pseudotyped virus produced in 293s/GnTI-/- cells (Man5-enrichment) (HIV-1).

Regarding 10E8 (antibody), the IC50 (µg/ml) in TZM-bl in assay [1] was determined as 1.1 µg/mL; in assay [2], 2.2 µg/mL; in [3], 4.4 µg/mL; in assay [4], 2.1 µg/mL; in assay [5] it was 1.1 µg/mL; in assay [6], 4 µg/mL. The IC50 (µg/ml) in TZM-bl in assay [7] worked out at 3.4 µg/mL; in assay [8], 2.3 µg/mL; in [9], 3.3 µg/mL; in [10], 2.5 µg/mL; in assay [11] it was 3.3 µg/mL; in [12] it was 2.2 µg/mL. The IC50 (µg/ml) in TZM-bl was determined as 2.7 µg/mL in assay [13]; 0.35 µg/mL in assay [14]; 0.8 µg/mL in [15]; 0.45 µg/mL in [16]; 1.11 µg/mL in assay [17]; 0.28 µg/mL in [18]. Besides, the IC50 (µg/ml) in TZM-bl in assay [19] came out at 1.26 µg/mL; in [20], 0.51 µg/mL; in [21] it was 1.52 µg/mL; in assay [22], 0.19 µg/mL; in assay [23], 0.53 µg/mL.
Consider PGDM1400 (antibody), for which the IC50 (µg/ml) in TZM-bl amounted to 0.007 µg/mL in assay [2]; 0.006 µg/mL in assay [3]; 0.002 µg/mL in [4]; 0.006 µg/mL in assay [5]; 0.003 µg/mL in assay [6]; 0.01 µg/mL in assay [7]. Further, the IC50 (µg/ml) in TZM-bl in assay [8] turned out to be 0.004 µg/mL; in assay [9] it was 0.02 µg/mL; in assay [10], 0.008 µg/mL; in assay [11], 0.04 µg/mL; in [12], 0.007 µg/mL; in assay [13], 0.016 µg/mL. In addition, the IC50 (µg/ml) in TZM-bl in assay [14] was above 5 µg/mL; in assay [15], above 25 µg/mL; in assay [16], above 5 µg/mL; in [17] it was above 25 µg/mL; in assay [18], above 5 µg/mL; in [19], above 25 µg/mL. For the same substance, the IC50 (µg/ml) in TZM-bl in [20] was above 5 µg/mL; in assay [21] it was above 25 µg/mL; in assay [22] it was above 5 µg/mL; in [23] it was above 5 µg/mL. Also, the ID50/IC50 in TZM-bl is above 25 µg/mL in [24]; above 5 µg/mL in [25]; above 25 µg/mL in [26]; above 5 µg/mL in assay [27]; above 25 µg/mL in assay [28]; above 5 µg/mL in [29]. In addition, the ID50/IC50 in TZM-bl in assay [30] is above 25 µg/mL; in assay [31] it was above 5 µg/mL.
Consider VRC03 (antibody), for which the IC50 (µg/ml) in TZM-bl in assay [14] is 0.014 µg/mL; in [16], 0.005 µg/mL; in [18] it was 0.003 µg/mL; in assay [20], 0.003 µg/mL; in [22], below 0.002 µg/mL; in assay [23] it was 0.003 µg/mL.
As to VRC04 (antibody), the IC50 (µg/ml) in TZM-bl in assay [14] was 0.18 µg/mL; in assay [16] it was 0.05 µg/mL; in assay [18] it was 0.02 µg/mL; in [20], 0.01 µg/mL; in assay [22] it was below 0.002 µg/mL; in assay [23] it was 0.013 µg/mL.
As for VRC07 (antibody), the IC50 (µg/ml) in TZM-bl in assay [14] was 0.07 µg/mL; in assay [16], 0.05 µg/mL; in [18] it was 0.02 µg/mL; in [20], 0.009 µg/mL; in assay [22], below 0.002 µg/mL; in [23] it was below 0.002 µg/mL.
On to VRC018 (antibody), for which the IC50 (µg/ml) in TZM-bl is 0.06 µg/mL in [14]; 0.02 µg/mL in assay [16]; 0.01 µg/mL in assay [18]; 0.006 µg/mL in assay [20]; below 0.002 µg/mL in [22]; 0.005 µg/mL in [23].
Consider VRC20 (VRC-PG20) (antibody), for which the IC50 (µg/ml) in TZM-bl in [14] is 0.015 µg/mL; in assay [16], 0.007 µg/mL; in [18], 0.004 µg/mL; in assay [20], 0.005 µg/mL; in [22], 0.008 µg/mL; in assay [23], below 0.002 µg/mL.
Regarding VRC23 (antibody), the IC50 (µg/ml) in TZM-bl in assay [14] was 0.19 µg/mL; in assay [16], 0.06 µg/mL; in [18], 0.1 µg/mL; in [20], 3.1 µg/mL; in assay [22], below 0.002 µg/mL; in assay [23], 0.082 µg/mL.
As to VRC34.01 (antibody), the IC50 (µg/ml) in TZM-bl in assay [1] is above 25 µg/mL; in assay [2] it was 0.1 µg/mL; in assay [3] it was 0.55 µg/mL; in assay [4], 0.03 µg/mL; in [5] it was 0.21 µg/mL; in assay [6], 0.17 µg/mL. Also, the IC50 (µg/ml) in TZM-bl is 2.1 µg/mL in assay [7]; 0.14 µg/mL in [8]; 0.62 µg/mL in assay [9]; 0.17 µg/mL in [10]; 0.84 µg/mL in [11]; 0.14 µg/mL in assay [12]. Also, the IC50 (µg/ml) in TZM-bl in assay [13] was 0.94 µg/mL; in assay [14] it was 0.05 µg/mL; in assay [15] it was 0.08 µg/mL; in assay [16] it was 0.04 µg/mL; in assay [17], 0.09 µg/mL; in [18], 0.07 µg/mL. Besides, the IC50 (µg/ml) in TZM-bl is 0.06 µg/mL in assay [19]; 0.07 µg/mL in assay [20]; 0.08 µg/mL in assay [21]; 0.07 µg/mL in [22]; 0.13 µg/mL in assay [23].
For VRC34.1 (antibody), the ID50/IC50 in TZM-bl in [24] came to 0.09 µg/mL; in [25] it was 0.04 µg/mL; in assay [26], 0.06 µg/mL; in assay [27] it was 0.07 µg/mL; in [28] it was 0.08 µg/mL; in assay [29] it was 0.07 µg/mL. The ID50/IC50 in TZM-bl in [30] was determined as 0.08 µg/mL; in [31] it was 0.05 µg/mL.
